Article PMC10102205, “Active and stable alcohol dehydrogenase-assembled hydrogels via synergistic bridging of triazoles and metal ions” (Nature Communications, 2023)

T1: TbSADH (Thermoanaerobacter brockii, UniProt P14941)
T1 construct: gene adh; recombinant from E. coli BL21(DE3), pET28a or pET22b vector, purified by AKTA; homotetramer
T1 sequence (P14941 1-352): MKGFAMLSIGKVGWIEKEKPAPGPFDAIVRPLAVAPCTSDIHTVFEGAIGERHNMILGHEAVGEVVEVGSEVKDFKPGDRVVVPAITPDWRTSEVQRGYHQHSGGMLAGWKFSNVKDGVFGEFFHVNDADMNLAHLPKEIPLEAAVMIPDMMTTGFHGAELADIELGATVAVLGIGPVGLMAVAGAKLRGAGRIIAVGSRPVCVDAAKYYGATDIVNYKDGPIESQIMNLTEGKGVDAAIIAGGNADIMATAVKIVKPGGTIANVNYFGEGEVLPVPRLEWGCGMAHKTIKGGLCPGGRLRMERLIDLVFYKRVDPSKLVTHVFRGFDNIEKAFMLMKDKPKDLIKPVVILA

B1: TbSADH (Thermoanaerobacter brockii) (protein)
chain: MKGFAMLSIGKVGWIEKEKPAPGPFDAIVRPLAVAPCTSDIHTVFEGAIGERHNMILGHEAVGEVVEVGSEVKDFKPGDRVVVPAITPDWRTSEVQRGYHQHSGGMLAGWKFSNVKDGVFGEFFHVNDADMNLAHLPKEIPLEAAVMIPDMMTTGFHGAELADIELGATVAVLGIGPVGLMAVAGAKLRGAGRIIAVGSRPVCVDAAKYYGATDIVNYKDGPIESQIMNLTEGKGVDAAIIAGGNADIMATAVKIVKPGGTIANVNYFGEGEVLPVPRLEWGCGMAHKTIKGGLCPGGRLRMERLIDLVFYKRVDPSKLVTHVFRGFDNIEKAFMLMKDKPKDLIKPVVILA
notes: recombinant from E. coli BL21(DE3), pET28a or pET22b vector, purified by AKTA; homotetramer

Legend:
TbSADH = target: T1, TbSADH; test: isothermal titration calorimetry; format: binding
[1] = substrate: CC(=O)c1ccccc1; test: asymmetric reduction, chiral HPLC, Michaelis–Menten fit; format: biochemical, Thermoanaerobacter brockii; conditions: free enzyme, not gelated, general assay: NADP^+ 1 mM, 10% IPA, phosphate buffer 50 mM pH 7.4, 30 °C

| Molecule | Kd (TbSADH) [µM] | Km [1] [mM] | kcat [1] [s⁻¹] |
| --- | --- | --- | --- |
| Cc1nnc[nH]1 [3-Me-3N, 1H-3-methyl-1,2,4-triazole] | 770 |  |  |
| B1 |  | 17.86 | 2.46 |
